One molecule from publication PMC8052261 can be followed below.

This data set deals with DDX3X helicase core WT (human, UniProt O00571 132-607). In words: fluorescence polarization.
DDX3X helicase core WT, sequence (O00571 132-607): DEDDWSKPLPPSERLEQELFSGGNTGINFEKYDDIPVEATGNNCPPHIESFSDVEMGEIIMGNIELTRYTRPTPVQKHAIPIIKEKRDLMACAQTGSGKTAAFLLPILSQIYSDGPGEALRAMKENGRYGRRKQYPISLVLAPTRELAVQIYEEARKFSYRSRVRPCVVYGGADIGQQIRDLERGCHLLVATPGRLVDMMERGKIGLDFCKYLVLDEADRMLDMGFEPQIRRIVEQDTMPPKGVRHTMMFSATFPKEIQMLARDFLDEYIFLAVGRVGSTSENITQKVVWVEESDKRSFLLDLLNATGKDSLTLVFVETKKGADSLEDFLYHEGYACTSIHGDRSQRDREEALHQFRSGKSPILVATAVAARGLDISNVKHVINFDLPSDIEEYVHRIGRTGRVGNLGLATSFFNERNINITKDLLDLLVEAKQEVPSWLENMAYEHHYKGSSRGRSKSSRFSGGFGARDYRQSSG

UCUCUCUCUCUCUCUCUCUC (ssRNA) [(UC)10]: the binding result was “no binding”.
